Data set [1] deals with Tfl-bZip (GCN4 bZip segment 226-281 with Tfl-GCN4-p1 dimerization domain) four d-position Leu of the GCN4-p1 zipper replaced by 5,5,5-trifluoroleucine (UniProt P03069). Put plainly: EMSA. Particulars: densitometry of mobility shift.
Data set [2] concerns the target T1, Leu-bZip (GCN4 bZip segment, residues 226-281) (UniProt P03069 P03069:226-281). Put plainly: EMSA; densitometry of mobility shift. Particulars: protein: synthetic; tags: 56-residue peptide; chain copies: 2 (stated, dimer).
For data set [3], the target named is T1, Leu-bZip (GCN4 bZip segment, residues …). Put plainly: EMSA; no protein-bound DNA seen. The conditions noted are these: protein: synthetic; tags: 56-residue peptide; chain copies: 2 (stated, dimer).

Chain of Tfl-bZip (GCN4 bZip segment 226-281 with Tfl-GCN4-p1 dimerization domain) four d-position Leu of the GCN4-p1 zipper replaced by 5,5,5-trifluoroleucine (P03069 whole entry, the tested form may be a part): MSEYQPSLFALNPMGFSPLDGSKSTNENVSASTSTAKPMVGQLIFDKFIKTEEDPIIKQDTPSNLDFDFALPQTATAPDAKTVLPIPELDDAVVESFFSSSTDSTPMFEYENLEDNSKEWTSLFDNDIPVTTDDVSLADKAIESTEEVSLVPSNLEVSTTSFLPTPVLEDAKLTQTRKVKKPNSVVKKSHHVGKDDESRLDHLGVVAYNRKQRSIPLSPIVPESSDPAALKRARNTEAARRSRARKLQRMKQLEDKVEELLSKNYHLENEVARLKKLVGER
T1 sequence (P03069 226-281, one chain of several): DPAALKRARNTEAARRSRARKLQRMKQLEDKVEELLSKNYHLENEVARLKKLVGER

With “TGGAGATGACGTCATCTCCT (double strand) [CREB site oligonucleotide]”, the Kd in data set [1] (CD at 0 C also shows coil-to-helix transition on CREB DNA) is 5.4 nM.
“GTGGAGATGACTCATCTCCGG (double strand) [AP-1 site oligonucleotide]”: the Kd in data set [1] turned out to be 12.5 nM.

B1: AP-1 site oligonucleotide (dsDNA)
DNA 1: GTGGAGATGACTCATCTCCGG
DNA 2: CCGGAGATGAGTCATCTCCAC
Take B1: in data set [2], the Kd stood at 12.8 nM.

B2: NON nonspecific oligonucleotide (dsDNA)
DNA 1: GATCCCAACACGTGTTGGGATC
DNA 2: GATCCCAACACGTGTTGGGATC
For the molecule B2, the binding result in data set [3] is recorded as “no binding”.

(Values after patent US20040214988, “Method for stabilization of proteins using non-natural amino acids” (California Institute of Technology, published 2004).)
